Data taken from article PMC8169757.
One block for each substance: values may come before it.

Key:
[1] = biological target: mouse NPM1 reintroduced into NPM1-/- HUH7 cells (mouse) (UniProt Q61937); assay: native gel or EMSA; native PAGE of lysates of NPM1-/- HUH7 cells with reintroduced human or mouse NPM1; control and LETN knockdown
[2] = biological target: purified mouse NPM1 mutant mNPM1-214S/217S (mouse) (UniProt Q61937); assay: native gel or EMSA; in vitro NPM1 oligomerization assay: purified NPM1 sonicated in binding buffer (50 mM Tris pH 7.4, 150 mM NaCl, 0.5% NP-40), incubated at RT with the in vitro transcribed first ~2000 nt of LETN, 10% native PAGE, anti-NPM1 blot
[3] = biological target: purified mouse NPM1 protein (mouse) (UniProt Q61937); assay: native gel or EMSA; in vitro NPM1 oligomerization assay as a5 but without functional LETN (no RNA, scrambled RNA of similar length, or LETN lacking the three NPM1-binding fragments)

stoichiometry N [1]: 5
Substance: mouse NPM1 reintroduced into NPM1-/- HUH7 cells (from UniProt Q61937 1-292) (natural protein)

stoichiometry N [2]: 5
Substance: purified mouse NPM1 mutant mNPM1-214S/217S (from UniProt Q61937 1-292) (natural protein)

stoichiometry N [3]: 5
Substance: purified mouse NPM1 protein (from UniProt Q61937 1-292) (natural protein)
